# Data: the supplement of paper PMC9170038
# Tested on: MS2 coat protein
# Experiment: apparent KD of MS2 coat protein; higher = weaker reporter binding
# Conditions: Eterna round: R107
# Method in brief: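 Apparent KD is reported per design as the median of normalised binding-curve fits across its clusters. The RNA switches were made by on-chip transcription from Illumina sequencing clusters. SNAP-549-labelled MS2 coat protein was then added in twofold steps (0.7 or 1.5 nM to 3 µM; 0.8–1.5 h to 10–20 min per step) in 100 mM Tris-HCl pH 7.5, 80 mM KCl, 4 mM MgCl2, without or with constant ligand.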
# [1] = input ligand: theophylline 20 uM
# [2] = input ligand: theophylline 2 mM
# [3] = input ligand: tryptophan 2.4 mM
Sequence,apparent KD of MS2 coat protein (input ligand: arginine 13.2 mM) [nM],apparent KD of MS2 coat protein (input ligand: none) [nM],apparent KD of MS2 coat protein [1] [nM],apparent KD of MS2 coat protein [2] [nM],apparent KD of MS2 coat protein [3] [nM]
AGUCUUGAACGAAGGAGCGACGUACAUGAGGAUCACCCAUGUGUGGAGCGAAAGCUCCAACGUCAGGUAGGUCGCGUUCGAGACA [Omei Arginine B SS A v2],14.9,12.8,18,14.9,13.9
AGUGGUGCAACUGAUACCAGAUUUAUACGAGACAUGAGGAUCACCCAUGUCGAAAGACAAAUCCCUUGGCAGCAGACACGAUCCC [theeternabot_sameState_MS2_Theo_B_25],9.88,–,10.4,–,9.65
AGUGUAUCCAUCGAUACCAGCCACCACCGAUAGACCACAUGAGGAUCACCCAUGUUGGGUGGCCCUUGGCAGCGGUGGCUGUGUA [Same State - Theophylline B Attempt #2 (HarryS)],57.5,–,512,–,546
AGUGUUAUAACUGAUACCAGACUCUCAUGUUUACAUGAGGAUCACCCAUGUUAUUUCUUUGUCCCUUGGCAGCAGAAUUAACACA [JR_SSTheophyB_Sub010],152,–,175,–,215
AGUUAUUCGAACAUGGUUGACGAGUGGCAACGAGGACCGGUACGGCCGCCACUCGAAUAAACAUGAGGAUCACCCAUGUACAAAU [T''-M'-T'-T-MS2 - Design 10],72.1,–,264,442,–
AUAAAUAAGGCGGCCGCCACUAAUAUAUUAAUAUUUUAUAUCCGACAUGAGGAUCACCCAUGUGGUAGGACCGGGCCAAUAAUUA [Same State - Tryptophan B],20.4,–,43.4,25,–
AUAAAUAAUAAAUAAAAUAAAGUGGGUGAACGAGGACCGGUACGGCCGCCACUCGGACAUGAGGAUCACCCAUGUCCAUGUGAAA [AstrosExyTry#1],13.1,–,22.4,19.2,–
AUAACAUGAGGAUCACCCAUGUAAGCUGAAGGAGCGCUGGAAACAGCAGGUAGGUCGCAGCAUGUUUCCACAUGGGUAGGAAACU [(M1)-(M2)-(Arg1)-(Arg2)-(A)'-(M)'-(A)''_Design8],42.4,80,86.2,123,49.5
AUAACAUGAGGAUCACCCAUGUAAGCUGAAGGAGCGGACGAAAGUCCAGGUAGGUCGCAGCGUUCCUUCACCUCAUGAGAAGGAG [SSArg-A #30 with U all better],17.8,22.5,37.5,24,21.6
AUAACAUGAGGAUCACCCAUGUAAGGUGAUACCAGACGAAGUAAAGUCCCUUGGCAGCACAAGCAUAGUUGCGAAUAUUGAUAGA [JR_SSTheophyA_Sub005],264,–,532,–,632
AUAACAUGAGGAUCACCCAUGUUGAGUGAUACCAGACUAUGUAAUGUCCCUUGGCAGCACAAGUAAAGUUAUAAAUAAUGAUAGA [#12 SameState-TheophyllineA],48.2,–,55.1,–,47.2
AUAACUGUCAAGGAAGGUGAUCCAGCAGAUACCAGCUAGGAAACUAGCCCUUGGCAGCUGCAACAUGAGGAUCACCCAUGUAAUA [(T)'-(M)'-(T1)-(T2)-(M1)-(M2)_Design9],61,–,135,–,59.3
AUAAGUAAUGUCUCGUGUAUUAUUACAGAUACCAGACUAUCCUAUGUCCCUUGGCAGCUGGAUUACAUGAGGAUCACCCAUGUUG [#10 Exclusion-TheophyllineA],21.5,–,25.3,–,22
AUAAGUAUGUUUUCGUGUUUUAUUACAGAUACCAGACUAUACGUUGUCCCUUGGCAGCUGGAUUACAUGAGGAUCACCCAUGUUG [#26 Exclusion-TheophyllineA],19.9,–,32,–,23.1
AUAAUAAGGUGAUCCUAAGUCGUACCGUAACGAGGACCGGUACGGCCGCCACUCGAACAUGAGGAUCACCCAUGUAUGUACGACA [M'-T'-T-MS2-T'' - Design 6],28.1,56.1,96.1,170,75.9
AUAAUGGGUUUCGGACUAUCAUGGAAUGAUACCAGAUACUUAGAAAUCCCUUGGCAGCAUGAGGACAUGAGGAUCACCCAUGUAU [Th A Ex t1],41.9,–,78.9,–,71.4
AUACAUGAGGAUCACCCAUGUAUAGAUGAAGGAGCGACCAGAGGGUCAGGUAGGUCGCAUCACAUGAGGAUCACCCAUGUAUUUU [DOUBLE!!! :-D #10],41.9,64,67.8,64.4,43.7
AUACAUGAGGAUCACCCAUGUCAUACAGAAGGAGCGUCACAUAAGACAGGUAGGUCGCUGAUAAAUGGAUUAUAGUUUAUGAUUA [JR_SSArginiA_Sub016],17.5,18.6,29.6,20.3,18.7

Sequence,apparent KD of MS2 coat protein (input ligand: arginine 13.2 mM) [nM],apparent KD of MS2 coat protein (input ligand: none) [nM],apparent KD of MS2 coat protein [1] [nM],apparent KD of MS2 coat protein [2] [nM],apparent KD of MS2 coat protein [3] [nM]
AUACAUGAGGAUCACCCAUGUGAUGGCCGGCGAGGACCGGUACGGCCGCCACUCGUGAUCCGUCCUGAAAGCAAAGCUCUCAACA [Esraleri],95,–,85.3,303,–
AUACAUGAGGAUCACCCAUGUUAUAGUGAAGGAGCGACAUUUAGGUCAGGUAGGUCGCACUAUAGUAUUAUAAUUCUUAGUUCUU [JR_ExcArginiA_Sub018],14.7,18.4,27.9,21.8,22
AUACAUGAGGAUCACCCAUGUUAUAGUGAAGGAGCGACGUUUAUGUCAGGUAGGUCGCACUGUUGUUUAAUGAUUCUUGGAUCUU [#21 Exclusion - Arginine A],15.3,13.2,22.5,13.5,16.4
AUAUAUACAUGAGGAUCACCCAUGUUAUUUCGAGGACCGGUACGGCCGCCACUCGAUAGAGUAGAAGUAACAUUUGUUAGAUGUA [JR_SSTryptoA_Sub011],19.7,–,28.3,22,–
AUAUAUAUGCGAAGGAGCGGGAAAUAUAUAUAUAUAAUCCUAACAUGAGGAUCACCCAUGUCCCAGGUAGGUCGCGCAUAUAUAU [12.A],68.2,74,88.5,87,72.2
AUAUGAUCAUGUGAUACCAGAAAUGGUAGUCUUCACUGGAUUACAUGAGGAUCACCCAUGUUCCCUUGGCAGCAUAUGAUCAUAU [#03 Exclusion-TheophyllineB],31.7,–,68.2,–,43.9
AUAUUUAACGGAAGGAGCGCGGAAUAAUAAGUGGGUAAACAUGAGGAUCACCCAUGUAAACCGCAGGUAGGUCGCCGAAUAAUAA [AstrosEXyARgB#4],71,89.4,115,86.1,68.4
AUAUUUAAUGGAAGGAGCGCGGAUAAUAAAGUGGGUAAACAUGAGGAUCACCCAUGUAAACCGCAGGUAGGUCGCCGAAAUAUAU [AstrosEXyARgB#8],56.6,39,49.4,57.6,47
AUCACUGUGAAAGAUACCAGCGCCCUACCUAUCUUCUGUUACAUGAGGAUCACCCAUGUUCGCCCUUGGCAGCUUGAGAUGGAUC [theeternabot_exclusion_MS2_Theo_B_11],44.2,–,75.1,–,44.9
AUCAUGGCCAUCGAUACCAGCUACAUGAGGAUCACCCAUGUAAACGGCCCGGUGAGAUGUAGCCCUUGGCAGCGAAGGGUCGAGG [Inenenatti],14,18.6,24.3,72.3,14.6
AUCCACAGCCGAAGGAGCGCUAUAGGAUGACAUGAGGAUCACCCAUGUGUGUGAUGUGGAUAGCAGGUAGGUCGCGGAGUGGAUU [Exclusion - Arginine B (Freestyle 10)],73,29.5,92.5,29.1,26.3
AUCGUACCUGAGGAUACCAGCAUGUGAUCAUAACAUGAGGAUCACCCAUGUAAUCAGUGAUGCCCUUGGCAGCUUGGUCGGUACA [Same State - Theophylline B (Freestyle 10)],34.8,–,74.3,–,44.2
AUCGUACCUGAUGAUACCAGCAAGUGAUCAUAACAUGAGGAUCACCCAUGUAAUCAGUGAUGCCCUUGGCAGCAUAGUCGAUACA [Same State - Theophylline B (Freestyle 5)],77.8,–,199,–,166
AUCGUACCUGAUGAUACCAGCAUGUGAUCGUAACAUGAGGAUCACCCAUGUAAUCAGUGAUGCCCUUGGCAGCAUGAUCGGUACA [Same State - Theophylline B (Freestyle 14)],79.2,–,127,–,94.9
AUCGUACCUGAUGAUACCAGCAUGUGCUCGUAACAUGAGGAUCACCCAUGUGAUCAGUGAUGCCCUUGGCAGCAUGAUCGGUACA [Same State - Theophylline B (Freestyle 16)],67,66,49.2,14.1,61.2
AUCGUACCUGGUGAUACCAGCAAUUGCUCGUGACAUGAGGAUCACCCAUGUGACCAGUGAUGCCCUUGGCAGCAUGGUCGGUGCA [Same State - Theophylline B (Freestyle 23)],36.8,–,65.3,–,61.2
AUCUCAUAGAGUGAUACCAGACUACAUGAGGAUCACCCAUGUUACAUUUAAAUAUCAUUUGUCCCUUGGCAGCACAUUAAGUACA [JR_Nu_ExcTheophyB_Sub019],25.6,–,33.2,–,23.4
AUCUCAUAGAGUGAUACCAGACUACAUGAGGAUCACCCAUGUUAGAUUUAAAUAUCAUUUGUCCCUUGGCAGCACAUUAAGUACA [JR_Nu_SSTheophyB_Sub021],14.2,–,14.8,–,12.7
